Three molecules from patent US20110059095A1 (Regeneron, published 2011) can be followed below.

Assay [1] concerns the target T1, full length human PAR-2 (human, UniProt P55085 26-397).
T1 construct: overexpressed on HEK293-derived 293/D9 cells; also called 293/D9/hPAR-2rec cells
As to the kind of experiment: MSD cell binding. The method, then: HEK293 cells were transfected with an NF-κB-luciferase-IRES-eGFP reporter plasmid. […] A clonal cell line, named D9, having low background levels of luciferase activity and high levels of eGFP when induced with IL-1β was made by a series of successive sorts of cell populations using flow cytometry. The 293/D9 cell line was then separately transfected with human PAR-2 or mouse PAR-2 to create the stable cell lines 293/D9/h PAR-2rec and 293/D9/m PAR-2rec, respectively.
Cells were plated on MSD high-bind 96 well plates at a density of 4×10⁴ cells/well in PBS and incubated for one hour at room temperature. Cells were then blocked in PBS with 2% BSA and incubated at room temperature for one hour. Anti-PAR-2 antibodies (ranging from 100 nM to 0.098 nM) were serially diluted two-fold in PBS with 0.5% BSA and incubated with the cells for one hour at room temperature followed by washing in PBS with 0.5% BSA. Sulfo-tagged anti-human IgG antibody (MSD) at a concentration of 0.1 μg/ml was then added to the cell/antibody mixture and incubated at room temperature for an additional hour. After another wash, a 1× non-surfactant containing read buffer was added and electro-chemiluminescent signal was read on the MSD Sector Imager. Signal of antibody binding to 293/D9 cells was subtracted from signal to 293/D9/hPAR-2rec or 293/D9/mPAR-2rec cells. Subtracted data were analyzed using a sigmoidal dose-response model in GraphPad Prism and EC₅₀ and Bₘₐₓ values were reported (Table 18). EC₅₀ values are defined as the antibody concentration required to achieve 50% maximal binding (Bₘₐₓ) to cells.

Assay [2] concerns the target T2, Peptide A (human PAR-2), unbiotinylated (Human).
T2 construct: also called Peptide A No Biotin
T2 peptide: GTNRSSKGRSLIGKVDGT
The assay can be described thus: SPR, antibody captured. On the technique in general: Surface plasmon resonance follows binding to a sensor surface in real time, without labels.

For assay [3], the target named is T3, Peptide G (rat PAR-2), unbiotinylated (Rat (Rattus norvegicus)).
T3 construct: also called Peptide G No Biotin
T3 peptide: GPNSKGRSLIGRLDTP
The assay can be described thus: peptide ELISA titration. The protocol: (§1) Anti-PAR-2 antibodies were tested for their ability to bind to the PAR-2 peptides. Various PAR-2 Peptides (Table 3) were coated onto 96-well plates at a concentration of 2 μg/ml and incubated overnight followed by blocking in a suitable blocking agent for one hour. […] Purified anti-PAR-2 antibodies were added to the plate coated with PAR-2 peptides to a final concentration ranging from 0.2 to 2.0 μg/ml and incubated for one hour at room temperature. Detection of bound antibodies was determined with Horse-Radish Peroxidase (HRP) conjugated anti-mouse or human IgG (Jackson Immuno Research Lab, West Grove, Pa.) and developed by standard colorimetric response using tetramethylbenzidine (TMB) substrate. Absorbance was read at OD₄₅₀ for 0.1 second.
(§2) In another experiment, selected anti-PAR-2 antibodies cloned onto human IgG4 were tested for binding to unbiotinylated and biotinylated forms of PAR-2 peptides (Peptides A, E, F and G; as described above). […] Absorbance values at 450 nm were analyzed using a sigmoidal dose-response model in GraphPad Prism (GraphPad Software, Inc., La Jolla, Calif.) and EC₅₀ values were reported (Table 9). EC₅₀ values are defined as the antibody concentration required to achieve 50% maximal binding to PAR-2 peptide.

Assay [4] deals with T2, Peptide A (human PAR-2), unbiotinylated. As to the kind of experiment: peptide ELISA titration. The protocol:
as §1, §2

The target of assay [5] is T4, Peptide E (mouse PAR-2), N-terminal biotinylated (Mouse (Mus musculus), N-terminal biotin via G4S linker).
T4 construct: also called Peptide E N-Term
T4 peptide: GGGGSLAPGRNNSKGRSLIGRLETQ
As to the kind of experiment: peptide ELISA titration. The protocol: as §1, §2
(ELISA stands for enzyme-linked immunosorbent assay.)

Assay [6] addresses T5, Peptide F (monkey PAR-2), N-terminal biotinylated (Monkey (Macaca mulatta), N-terminal biotin via G4S linker).
T5 construct: also called Peptide F N-Term
As to the kind of experiment: peptide ELISA titration. The method, then: as §1, §2

Assay [7] has as its target T6, Peptide G (rat PAR-2), N-terminal biotinylated (Rat (Rattus norvegicus), N-terminal biotin via G4S linker).
T6 construct: also called Peptide G N-Term
T6 peptide: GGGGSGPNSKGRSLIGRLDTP
The assay can be described thus: peptide ELISA titration. The method, then:
as §1, §2

Assay [8] deals with T7, Peptide E (mouse PAR-2), unbiotinylated (Mouse (Mus musculus)).
T7 construct: also called Peptide E No Biotin
T7 peptide: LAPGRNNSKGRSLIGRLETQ
As to the kind of experiment: peptide ELISA titration. The protocol:
as §1, §2

The target in assay [9] is T8, Peptide G (rat PAR-2), C-terminal biotinylated (Rat (Rattus norvegicus), C-terminal biotin via G4S linker).
T8 construct: also called Peptide G C-Term
T8 peptide: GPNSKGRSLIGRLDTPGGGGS
The assay can be described thus: peptide ELISA titration. The method, then:
as §1, §2

Assay [10] has as its target T9, Peptide A (human PAR-2), C-terminal biotinylated (Human, C-terminal biotin via G4S linker).
T9 construct: also called Peptide A C-Term
The assay can be described thus: peptide ELISA titration. The protocol:
as §1, §2

In assay [11] the target is T10, Peptide A (human PAR-2), N-terminal biotinylated (Human, N-terminal biotin via G4S linker).
T10 construct: also called Peptide A N-Term
T10 peptide: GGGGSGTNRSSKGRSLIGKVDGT
The assay can be described thus: peptide ELISA titration. The method, then:
as §1, §2

In assay [12] the target is T1, full length human PAR-2. The assay can be described thus: cell-based or functional assay.
Assay [13] concerns the target T2, Peptide A (human PAR-2), unbiotinylated. The assay can be described thus: SPR, antibody captured, steady state. The protocol:
(§3) Equilibrium dissociation constants (KD values) for antigen binding to selected purified PAR-2 antibodies were determined by surface kinetics using a real-time surface plasmon resonance biosensor assay. Antibody was captured on either a rabbit anti-mouse IgG polyclonal antibody (GE Healthcare, Piscataway, N.J.) surface or a goat anti-human IgG polyclonal antibody (Jackson Immuno Research Lab, West Grove, Pa.) surface created through direct amine chemical coupling to a BIACORE™ CM5 sensor chip to form a captured antibody surface. […] Antigen-antibody binding and dissociation were monitored in real time at room temperature. Kinetic analysis was performed to calculate KD and half-life of antigen/antibody complex dissociation (Table 10). For those antibodies where no T_{1/2} value is shown, steady state analysis was used to calculate the KD value. NB: no binding observed under current experimental conditions. ND: not determined.

Assay [14] concerns the target T11, Peptide C (human PAR-2), C-terminal biotinylated (Human).
T11 construct: also called Peptide C C-Term
T11 peptide: SLIGKVGGGGS-biotin
As to the kind of experiment: peptide ELISA.

Assay [15] deals with T2, Peptide A (human PAR-2), unbiotinylated. As to the kind of experiment: peptide ELISA.
In assay [16] the target is T12, Peptide C (human PAR-2), N-terminal biotinylated (Human).
T12 construct: also called Peptide C N-Term
T12 peptide: Biotin-GGGGSSLIGKV
As to the kind of experiment: peptide ELISA.

The target in assay [17] is T9, Peptide A (human PAR-2), C-terminal …. The assay can be described thus: peptide ELISA.
Assay [18] concerns the target T10, Peptide A (human PAR-2), N-terminal …. The assay can be described thus: peptide ELISA.
In assay [19] the target is T13, Peptide B (human PAR-2), unbiotinylated (Human).
T13 construct: also called Peptide B No Biotin
T13 peptide: SLIGKVDGTSHVTG
As to the kind of experiment: SPR, antibody captured; SPR at room temperature, monomeric peptide 15.6-250 nM injected over captured antibody. The protocol:
as §3

Where no end group is shown, it is not given here. The star is where a group is joined. Biotin = O=C1N[C@H]2[C@H](CS[C@H]2CCCCC(=O)*)N1

T1 sequence (P55085 26-397 G138A limits assumed): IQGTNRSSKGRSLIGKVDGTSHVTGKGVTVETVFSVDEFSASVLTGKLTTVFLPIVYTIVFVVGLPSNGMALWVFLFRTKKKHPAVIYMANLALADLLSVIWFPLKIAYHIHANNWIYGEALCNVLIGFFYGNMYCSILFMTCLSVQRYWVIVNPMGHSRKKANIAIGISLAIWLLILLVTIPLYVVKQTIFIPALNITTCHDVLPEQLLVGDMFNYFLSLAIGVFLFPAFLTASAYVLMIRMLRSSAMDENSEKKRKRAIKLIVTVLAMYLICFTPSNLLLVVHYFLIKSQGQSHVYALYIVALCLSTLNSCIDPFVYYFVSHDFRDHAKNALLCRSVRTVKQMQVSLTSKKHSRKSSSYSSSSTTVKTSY
T5 sequence (peptide, as listed by the source): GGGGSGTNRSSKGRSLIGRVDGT

B1: H4H580P (antibody, human IgG4, V domains shown)
VH: QVQLVESGGGVVQPGRSLRLSCVASGFTFSRYGMHWVRQAPGKGLEWVVVISYDGINKYYADSVKGRFTISRDNSKNTVYLQMNSLRAEDTAVYHCAKGDFWSGYFDYWGQGTLVTVSS
VL: DIVMTQTPLSSPVTLGQPASISCRSSQSLVHSDGNTYLSWLHQRPGQPPRLLIYKISNRFSGVPDRFSGSGAGTDFTLQISRVEAEDVGIYYCMQATQFPTFGGGTKVEIK
notes: also called H1H580P variable regions
Usually EC50 stands for the concentration at which the effect is half-maximal. What is called Kd is the equilibrium constant for the complex coming apart. Turning to B1, in the assay with full length human PAR-2 [1], the Bmax came out at 30200 MSD Unit. The EC50 was 8690 pM with full length human PAR-2 [1]; 139 pM in assay [3]; 90 pM in assay [4]; 932 pM in assay [5]; 148 pM in assay [6]; 142 pM in assay [7]. Also, the concentration giving a half-maximal response (EC50) was determined as 2530 pM in [8], 100 pM in assay [9], 202 pM in assay [10] and 160 pM in assay [11]. In [2], this molecule displayed a Kd of 103000 pM. Further, in [2], the T1/2 amounted to 52.8 s. Besides, the “IC50, NF-kB-luciferase, 20 nM Trypsin” value with full length human PAR-2 [12] was found to be 3500 pM.

B2: H4H573P (antibody, human IgG4, V domains shown)
VH: EVQLVESGGGLVQPGRSLRLSCAASGFTFDDYAMHWVRQGPGKGLEWVSGISWNGGSAGYADSVKGRFTISRDNAKNSLYLQLNSLRAEDTALYYCAKEDYAFDIWGQGTMVTVSS
VL: not shown
notes: also called H1H573P variable regions
In turn, B2 showed an equilibrium dissociation constant (Kd) in assay [13] of 749000 pM. Besides, the EC50 worked out at 14 pM in [3]; 93 pM in assay [4]; 16 pM in [5]; 18 pM in assay [6]; 17 pM in assay [7]; 355 pM in [8]. Besides, the concentration giving a half-maximal response (EC50) is 10100 pM in assay [9], 22 pM in [10] and 93 pM in assay [11].

B3: H2M610N (antibody, V domains shown)
VH: EVQLVESGGNLVQPGRSLRLSCAASGFTFDDYAMHWVRQAPGKGLEWVSGISWNSGSRGYADSVKGRFTISRDNAKNSLYLQMNSLRTEDTAFYYCTKEDEAFDYWGQGTLVTVSS
VL: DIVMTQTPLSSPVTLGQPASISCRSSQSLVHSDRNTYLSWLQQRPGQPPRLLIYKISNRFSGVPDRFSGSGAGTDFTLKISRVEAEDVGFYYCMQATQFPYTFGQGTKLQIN
notes: chimeric: human variable, mouse constant domains
As for B3, the figures for the Kd in [13] and in [19] were 71300 pM and 360000 pM, respectively. For the same molecule, the OD450 in [14] was in the range of 0 to 0.09 od; in assay [15] it was 1 to 4 od; in assay [16], 0 to 0.09 od; in assay [17] it was 1 to 4 od; in assay [18], 1 to 4 od. This molecule also had a T1/2 in [19] of 48 s.
